The record followed here is publication PMC6078952.

Usually Kd stands for a measure of binding affinity in units of concentration.

Assay [1] deals with recombinant human propeptide of lysyl oxidase (LOX-PP) (human) (UniProt P28300). Kind of assay: SPR; Biacore T100 or T200, 25 °C, HBS pH 7.4 with 0.05% P20; LOX-PP covalently immobilised on a CM5 chip via amino groups, plasminogen as analyte; single-cycle kinetics, 2-state model, n = 2.
The target in assay [2] is Tropoelastin (UniProt P15502). Kind of assay: SPR; Biacore T100 or T200, 25 °C, HBS pH 7.4 with 0.05% P20; tropoelastin covalently immobilised on a CM5 chip via amino groups, LOX-PP as analyte; single-cycle kinetics, 2-state model. (In general: In SPR one partner is held on a chip, and binding of the other changes the refractive index at the surface.)
Sequence of Tropoelastin (P15502 27-786): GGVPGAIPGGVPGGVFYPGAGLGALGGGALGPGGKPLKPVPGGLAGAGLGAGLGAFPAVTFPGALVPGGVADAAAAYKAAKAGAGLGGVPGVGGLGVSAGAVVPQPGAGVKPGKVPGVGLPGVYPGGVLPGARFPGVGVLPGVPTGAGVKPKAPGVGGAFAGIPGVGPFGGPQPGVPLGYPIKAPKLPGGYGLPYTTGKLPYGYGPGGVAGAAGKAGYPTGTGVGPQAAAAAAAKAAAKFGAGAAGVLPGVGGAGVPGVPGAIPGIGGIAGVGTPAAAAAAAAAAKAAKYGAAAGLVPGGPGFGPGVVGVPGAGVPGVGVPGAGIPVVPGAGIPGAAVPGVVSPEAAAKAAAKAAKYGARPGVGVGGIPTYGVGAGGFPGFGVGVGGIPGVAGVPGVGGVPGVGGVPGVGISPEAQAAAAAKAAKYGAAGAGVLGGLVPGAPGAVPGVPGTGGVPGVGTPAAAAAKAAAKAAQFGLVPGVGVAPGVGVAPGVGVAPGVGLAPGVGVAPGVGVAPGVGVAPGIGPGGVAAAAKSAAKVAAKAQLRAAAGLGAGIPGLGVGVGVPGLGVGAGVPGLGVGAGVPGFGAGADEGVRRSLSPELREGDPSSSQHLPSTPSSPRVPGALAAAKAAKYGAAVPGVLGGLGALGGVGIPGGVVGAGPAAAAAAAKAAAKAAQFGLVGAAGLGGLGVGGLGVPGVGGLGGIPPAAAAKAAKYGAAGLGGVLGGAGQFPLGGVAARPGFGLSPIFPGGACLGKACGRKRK

Sequence of recombinant human propeptide of lysyl oxidase (LOX-PP) (human) (P28300 22-168 P24L): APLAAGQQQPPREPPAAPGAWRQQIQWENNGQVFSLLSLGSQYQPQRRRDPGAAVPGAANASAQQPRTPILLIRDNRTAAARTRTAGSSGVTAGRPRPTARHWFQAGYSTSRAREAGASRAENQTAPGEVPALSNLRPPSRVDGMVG

For Plasminogen (natural protein), in assay [1], the Kd was determined as 15.8 nM, the ka of the first step (2-state model) was found to be 41700 M⁻¹ s⁻¹, the ka of the second step (2-state model) stood at 0.00214 s⁻¹ and the kd of the first step (2-state model) came to 0.00515 s⁻¹. Moreover, the kd of the second step (2-state model) in assay [1] was found to be 0.000306 s⁻¹.
Regarding “recombinant human propeptide of lysyl oxidase (LOX-PP) (from UniProt P28300 22-168) (domain or fragment)”, in assay [2], the dissociation constant (Kd) was found to be 1.39 nM, the ka of the first step (2-state model) was 331 M⁻¹ s⁻¹, the ka of the second step (2-state model) came out at 0.003 s⁻¹ and the kd of the first step (2-state model) stood at 0.0043 s⁻¹. The kd of the second step (2-state model) in assay [2] came out at 3.1e-07 s⁻¹.
